Results reported in patent publication US7132258.

Molecular target: Gal4 DBD fusion of the LBD of hRARα (human)
Assay: cell-based or functional assay

ligand-dependent transcriptional activation by Gal4 DBD fusion of RAR on a Gal4-dependent luciferase reporter, A549 cells, 100 nM atRA: 2 fold
Substance: full-length RAC3 expressed from pCMX.F.RAC3 (FLAG and HA epitope at the N-terminus) (from UniProt Q9Y6Q9 2-1424)
